Measurements: patent US20200010554A1 (TUSK THERAPEUTICS, published 2020)
Where a chain is given by its changes, count along the chain named. Like-named read-outs stand apart in the source and are kept apart here. One block for each binder: values may come before it.

Tests used:
[1] = target: T1, human CD25 expressed on cells (Karpas 299, SU-DHL-1, SR-786, in vitro differentiated Treg cells, PBMC) (human, UniProt P01589 22-272); assay: flow cytometry titration on Karpas 299 cells, AF647 secondary antibody
T1 construct: also called CD25 expressing cells
T1 sequence: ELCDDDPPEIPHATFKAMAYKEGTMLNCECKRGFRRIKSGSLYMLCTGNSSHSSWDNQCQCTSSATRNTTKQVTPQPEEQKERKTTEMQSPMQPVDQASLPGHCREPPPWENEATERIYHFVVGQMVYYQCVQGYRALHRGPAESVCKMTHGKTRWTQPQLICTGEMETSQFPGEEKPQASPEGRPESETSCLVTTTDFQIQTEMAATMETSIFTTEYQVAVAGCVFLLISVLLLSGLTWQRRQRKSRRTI

[2] = target: T1, human CD25 expressed on cells (Karpas …); assay: as above; remark: listed apart in the source
recombinant mouse CD25 = target: T2, recombinant mouse CD25 (mouse, UniProt P01590 22-236, biotinylated in FIG. 1A (site not stated)); assay: BLI Octet RED384, IgG on AHQ sensors, 100 nM antigen, 1:1 model
T2 construct: also called biotinylated mouse CD25
T2 sequence (looked up): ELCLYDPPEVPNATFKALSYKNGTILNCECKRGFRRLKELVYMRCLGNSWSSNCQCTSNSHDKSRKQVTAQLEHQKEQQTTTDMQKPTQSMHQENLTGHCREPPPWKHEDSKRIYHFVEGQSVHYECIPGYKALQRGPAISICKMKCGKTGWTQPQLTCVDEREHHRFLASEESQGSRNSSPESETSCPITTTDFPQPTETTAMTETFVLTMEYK

[3] = target: T3, mouse CD25 expressed on cells (CHO cells expressing mouse CD25; mouse T cells) (mouse, UniProt P01590 22-268); assay: flow cytometry on CHO cells expressing mouse CD25, MFI AF647
T3 construct: whole, on cells; also called CHO-mCD25; cellular expressed mCD25
T3 sequence (looked up): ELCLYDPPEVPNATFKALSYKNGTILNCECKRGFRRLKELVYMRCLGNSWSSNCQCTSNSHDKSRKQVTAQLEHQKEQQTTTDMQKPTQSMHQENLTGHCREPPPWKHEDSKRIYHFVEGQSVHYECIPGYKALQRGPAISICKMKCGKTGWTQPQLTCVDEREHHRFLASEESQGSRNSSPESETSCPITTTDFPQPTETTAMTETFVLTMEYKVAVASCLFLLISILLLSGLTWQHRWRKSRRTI

[4] = target: T4, recombinant mouse CD25 his tagged (mouse, UniProt P01590 22-236, limits assumed); assay: SPR Biacore 2000, antibody captured by anti-mouse antibody on CM-5 chip, recombinant mouse CD25 his tagged as analyte, bivalent analyte model
T4 construct: also called rmCD25 his tagged; mCD25; not shown: his tag
T4 sequence (looked up): T2 sequence (looked up)

[5] = target: T1, human CD25 expressed on cells (Karpas …); assay: flow cytometry titration on Karpas 299 cells, AF647 secondary antibody; remark: listed apart in the source
[6] = target: T1, human CD25 expressed on cells (Karpas …); assay: as above; remark: listed apart in the source
[7] = target: T1, human CD25 expressed on cells (Karpas …); assay: as above; remark: listed apart in the source

binding result [6]: binds
B5: Antibody 8 (antibody, V domains shown)
VH: EVQLLESGGGLVQPGGSLRLSCAASGFTFSSYGMSWVRQAPGKGLELVSTINGYGDTTYYPDSVKGRFTISRDNAKNTLYLQMNSLRAEDTAVYFCARDRDYGNSYYYALDYWGQGTLVTVSS
VL: EIVLTQSPGTLSLSPGERATLSCRASSSVSFMHWLQQKPGQAPRPLIYATSNLASGIPDRFSGSGSGTDYTLTISRLEPEDFAVYYCQQWSSNPPAFGQGTKLEIK
notes: compared with a human IgG1 isotype control

binding result [7]: binds
B6: Antibody 9 (antibody, V domains shown)
VH: B5 VH
VL: B5 VL with E1Q, A42S
notes: as for B5

The remaining lines, values behind:

B1: Antibody 10 (antibody, V domains shown)
VH: QVQLQESGPGLVKPSETLSLTCTVSGFSLTSYGIQWIRQPPGKGLEWIGVIWAGGSTNYNSALMSRVTISKDNSKNQFSLKLSSVTAADTAVYYCARAYGYDGSWLAYWGQGTLVTVSS
VL: B5 VL with G9A, F31Y, L35Y, Y48F, D59A, Y70F, R76S, A96T, Q99G
notes: also called Ab10
EC50 (read off the curve) [1]: ~0.3 µg/mL

B2: Antibody 11 (antibody, V domains shown)
VH: B1 VH
VL: B5 VL with E1Q, G9A, F31Y, L35Y, Y48F, D59A, R76S, A96T, Q99G
notes: also called Ab11
EC50 (read off the curve) [2]: ~0.3 µg/mL

B3: PC61(mIgG2a), recombinant anti-mouse CD25 antibody from clone PC-61.5.3 with murine IgG2a and kappa constant regions (antibody, V domains shown)
VH: EVQLQQSGAELVRPGTSVKLSCKVSGDTITAYYIHFVKQRPGQGLEWIGRIDPEDDSTEYAEKFKNKATITANTSSNTAHLKYSRLTSEDTATYFCTTDNMGATEFVYWGQGTLVTVSS
VL: QVVLTQPKSVSASLESTVKLSCKLNSGNIGSYYMHWYQQREGRSPTNLIYRDDKRPDGAPDRFSGSIDISSNSAFLTINNVQTEDEAMYFCHSYDGRMYIFGGGTKLTV
notes: also called PC61m2a; aPC61 mIgG2a
Kd (recombinant mouse CD25): 4.6 nM
EC50 (read off the curve) [3]: ~0.2 µg/mL
Kd [4]: 3.6 nM

B4: Antibody 7 (antibody, V domains shown)
VH: B5 VH with A75S, F95Y
VL: B5 VL with E1Q, A42S
notes: as for B5
binding result [5]: binds
